This is an account of results in PMC2756145.

What is called Kd is a measure of binding affinity in units of concentration. A lower Kd goes with tighter binding.

Holding throughout (test): filter binding
Data set [1] addresses T1, Pot1-DBD_Q91A (Schizosaccharomyces pombe, UniProt O13988 1-389, Q91A).
T1 sequence: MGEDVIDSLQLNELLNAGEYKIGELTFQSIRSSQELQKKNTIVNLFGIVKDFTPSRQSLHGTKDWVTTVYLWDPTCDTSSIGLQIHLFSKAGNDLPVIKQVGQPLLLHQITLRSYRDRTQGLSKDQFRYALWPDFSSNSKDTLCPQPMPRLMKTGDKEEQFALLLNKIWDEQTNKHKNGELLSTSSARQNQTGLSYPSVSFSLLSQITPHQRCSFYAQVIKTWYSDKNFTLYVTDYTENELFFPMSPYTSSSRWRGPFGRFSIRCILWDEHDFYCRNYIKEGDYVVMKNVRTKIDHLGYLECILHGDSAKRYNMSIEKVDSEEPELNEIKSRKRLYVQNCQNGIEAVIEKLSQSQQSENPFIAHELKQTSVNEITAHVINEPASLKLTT

The target in data set [2] is T2, Pot1-DBD_S123A (Schizosaccharomyces pombe, UniProt O13988 1-389, S123A).
T2 sequence: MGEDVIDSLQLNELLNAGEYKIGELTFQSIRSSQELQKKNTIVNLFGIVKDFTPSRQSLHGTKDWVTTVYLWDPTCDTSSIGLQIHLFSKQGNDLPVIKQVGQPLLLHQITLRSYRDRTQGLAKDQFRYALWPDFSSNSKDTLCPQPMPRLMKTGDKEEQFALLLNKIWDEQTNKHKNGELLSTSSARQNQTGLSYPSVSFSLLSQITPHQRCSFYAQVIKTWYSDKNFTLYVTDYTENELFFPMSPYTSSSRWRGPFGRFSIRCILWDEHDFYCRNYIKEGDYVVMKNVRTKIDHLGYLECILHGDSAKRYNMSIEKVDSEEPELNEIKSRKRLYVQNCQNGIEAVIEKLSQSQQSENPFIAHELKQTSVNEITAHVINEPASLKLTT

Data set [3] concerns the target T3, Pot1-DBD_V97A (Schizosaccharomyces pombe, UniProt O13988 1-389, V97A).
T3 sequence: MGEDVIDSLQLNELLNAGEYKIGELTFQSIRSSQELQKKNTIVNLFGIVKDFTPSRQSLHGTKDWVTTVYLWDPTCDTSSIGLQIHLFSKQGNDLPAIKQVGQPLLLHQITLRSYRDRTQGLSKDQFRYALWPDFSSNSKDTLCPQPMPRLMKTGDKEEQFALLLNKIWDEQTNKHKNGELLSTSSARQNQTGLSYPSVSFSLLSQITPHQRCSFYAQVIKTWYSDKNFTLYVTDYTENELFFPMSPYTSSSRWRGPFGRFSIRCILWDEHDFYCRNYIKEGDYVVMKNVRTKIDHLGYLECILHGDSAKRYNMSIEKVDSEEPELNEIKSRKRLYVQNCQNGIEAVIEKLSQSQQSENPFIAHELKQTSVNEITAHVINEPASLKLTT

Take GGTTACGGTTAC (ssDNA) [12mer]: the Kd in data set [1] amounted to 7 ± 0.6 nM; in data set [2], 30 ± 2 nM; in data set [3], 10 ± 1 nM.
